# Reference: US11834472B2, “Anti-IL-22 antibodies, antibody fragments, their immunoconjugates and uses thereof” (BioAtla, Inc., priority 2018, dated 2023)
# B1: CPS02: mutant anti-IL-22 antibody binding human and mouse IL-22; light chain LC-06, heavy chain HC-08 (antibody, V domains shown)
# VH: QVQLVQSGAEVKKPGASVKVSCKASGYIFRSYWIHWIRQPPGKGLEWIGRIYPGTGRTYYNEKFKGRVTISADKSISTAYLQWSSLKASDTAMYYCARSYDSSVAYWGQGTLVTVSS
# VL: AIQLTQSPSSLSASVGDRVTITCSASSSVSYMHWYLQKPGQSPQLLIYKTRKLASGVPSRFSGSGSGTDFTFTISSLEAEDAATYYCQQWSSNPYITFGQGTKVEIKR
# Experiments:
# [1] = target: T1, mIL22 (Mus musculus, UniProt Q9JJY9); assay: Inhibition of mIL-22 induced acute phase response (SAA) in mice; format: in vivo; settings: 5 μg mIL22 and 50 μg mAb; molar ratio of mIL 22:mAb = 1:2.2; SAA in mice at 24 hours
# T1 sequence (Q9JJY9 34-179): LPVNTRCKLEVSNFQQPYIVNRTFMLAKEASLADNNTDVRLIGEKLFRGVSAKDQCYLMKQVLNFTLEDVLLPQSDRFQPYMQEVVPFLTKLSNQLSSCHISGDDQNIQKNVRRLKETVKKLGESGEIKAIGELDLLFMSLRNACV
# Method: IL-22 induces acute phase responses in animals such as mice and humans. The mutant antibodies of the present invention can inhibit the acute phase response induced by IL-22. This acute phase response is indicated by the concentration of serum amyloid (SAA) in the blood of the animal as shown in FIG. 11. The SAA concentrations in the blood of mice were measured 24 hours after treatment of the mice by IL-22 and/or the mutant antibodies. When only IL-22 is used, the SAA concentration was high.
# 5 μg mIL-22 was used to stimulate an acute phase response in mice. The acute phase response was measured by the concentration of serum amyloid (SAA) in the blood of the mice. The anti-IL-22 antibodies were administered at two different dosage levels to inhibit the IL-22 induced acute phase response: 5 μg and 50 μg. Five mice were used for each dose group. The SAA concentrations were measured at 24 hours after injection of IL-22 and/or antibodies and the results are shown in FIG. 11.
# [2] = target: T2, mouse IL-22 (mIL-22) (Mus musculus, UniProt Q9JJY9); assay: Inhibition of mIL-22 induced Stat3 phosphorylation in HepG2 cells; format: cell-based; settings: mAb 6.7 nM
# T2 sequence (Q9JJY9 34-179): T1 sequence (Q9JJY9 34-179)
# Method: One of the immediate functions of IL-22 is inducing phosphorylation of Stat3, a protein in the signaling pathway of IL-22. The 10 antibodies of Table 1 were tested in a cell-based assay for blocking IL-22-dependent phosphorylation of Stat3 through human or mouse IL-22 in HepG2 cells. Antibody hum10 and mutant CPE-LC-E049K were used as controls. Four concentrations of each of the antibodies were used: 0.11 μg/mL, 0.33 μg/mL, 1 μg/mL, and 3 μg/mL.
# 30,000 human HepG2 cells were seeded in 96 well plates and serum starved overnight. Three-fold dilutions of anti-IL-22 antibodies and control hum10 antibody at concentrations of 0.11 μg/mL, 0.33 μg/mL, 1 μg/mL, and 3 μg/mL were incubated with 200 ng/ml of hIL-22 or mIL-22 at 37° C. for one hour then added to the serum starved human HepG2 cells. The HepG2 cells were incubated with the antibody-IL-22 mixture at 37° C. for 20 minutes. After incubation, HepG2 cells were washed with PBS and lysed. Half of the cell lysate was used to determine the level of phosphorylated Stat3 using Cell Signaling kit #7300 following the vendor's protocol and the other half of the cell lysate was used to determine the level of total Stat3 by Western blot analysis using a Santa Cruz rabbit polyclonal antibody (Sc-7179) against human Stat3.
# [3] = Pharmacokinetics in NOD SCID mice, plasma concentration by solid phase ELISA; format: in vivo, mouse; settings: after a 10 mg/kg IV injection
# Method: The pharmacokinetics of the mutant antibodies of Table 1 were analyzed in mice. The antibodies were injected into mice by IV injection at two doses 0.3 mg/kg and 10 mg/kg. The concentrations of the injected antibodies in the blood plasma were measured by solid phase ELISA.
# Two anti-IL-22 antibodies CPS02 and CPS09 were tested in NOD SCID mice. The antibodies were injected via IV at two dosages: 0.3 mg/kg and 10 mg/kg. Three mice were used for each dose group. Blood samples were retrieved from the mice at 10 min, 1 h, 3 h 7 h, 24 h, 48 h, 96 h, 168 h, 240 h and 336 h after the IV injection. The concentrations of the injected antibodies in the blood samples were measured by solid phase ELISA.
# [4] = Thermostability; format: physicochemical
# [5] = Aggregate formation at 10 mg/mL in PBS; format: physicochemical
# [6] = target: T3, human IL-22 (Homo sapiens, UniProt Q9GZX6); assay: SPR capture assay, affinity to human IL-22; format: binding; settings: human IL-22, SPR
# T3 sequence (Q9GZX6 34-179): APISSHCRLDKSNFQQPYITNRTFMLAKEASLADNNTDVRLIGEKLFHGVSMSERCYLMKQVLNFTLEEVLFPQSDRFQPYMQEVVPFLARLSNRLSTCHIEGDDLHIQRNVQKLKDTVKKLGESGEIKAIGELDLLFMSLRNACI
# Method: The affinity of the 10 antibodies of Table 1 was measured by Surface Plasma Resonance (SPR) using a capture assay in PBS buffer to generate binding curves at four different concentrations of each antibody (0.05, 0.1, 0.5, and 1.0 μg/ml). The Ka, Kd and KD values for the mutant antibodies were calculated from the curves for each of the antibodies.
# The affinity of the 10 antibodies of Table 1 was measured by Surface Plasma Resonance (SPR) using a capture assay on a SPR-2 instrument (SierraSensiors, Hamburg, Germany). The antigens hIL-22 and mIL-22 were immobilized on chips. The running buffer for the assay contained 10 mM HEPES with a pH of 7.4, 500 mM NaCl, and 0.05% TWEEN® 20. […] The off-rate was measured for 6 minutes. Binding constants were calculated using the curve fitting software Analyzer2 (Sierra Sensors). Sensorgrams were analyzed with the instrument specific software and with BIAevaluation 4.1 software. The binding data were analyzed using the Langmuir 1:1 model (human IL-22) or a model for a heterogeneous ligand ([…]).
# The antibodies were tested at four different concentrations of each antibody: 0.33 nM, 0.67 nM, 3.3 nM, 6.7 nM for hIL-22; 1, 2, […] for mIL-22. Antibody CPE-LC-E049K was used as a control.
molecule,measurement,setting,value
B1,Acute Phase response (% signal reduction),[1],signal increase
same,STAT3 Phosphorylation; mIL22 % inhibition,[2],76.18%
same,half-life in mice,[3],about 18 hours
same,Thermostability (% remaining activity 60 min); of duplicate samples,[4],104%
same,Aggregate formation at 10 mg/mL in PBS,[5],no
same,ka,[6],1.87e+06 M·s
same,kd,[6],4.67e-05 s⁻¹
